What all share (assay): ELISA, supernate
Background: ELISA stands for enzyme-linked immunosorbent assay.

The target in test [1] is first-generation H1 LAH construct H1frThrST (Influenza A virus (H1)).
For test [2] the target is unchanged. The source holds these as a separate data set.
The target of test [3] is first-generation H3 LAH construct H3frThrST (Influenza A virus (H3)).

Read-outs that look alike come from different tables or passages of the source.

B1: mAb 5I17 (antibody, V domains shown)
VH: EVQLVESGGGVVQPGRSLRLSCAASGFSFSNYAMHWVRQAPGKGLEWVALISFDGSDKYYADSVKGRFTMSRDNSKNTLYLQMNSLRAEDTAVYYCARDEPYCGGDCFAFDVWGQGTMVTVS
VL: DIQLTQSPSSLSASAGDRVSMTCRASQIISSSLNWYQQKPGKAPKLLIYAASNLQSGVPSRFSGSGSGTDFTLTISSLQPEDFATYYCQQSYSTPPELTFGGGTKVDIKR
Take B1: the OD in test [1] is 0.078 OD; in test [2], 0.07 OD; in test [3], 0.07 OD.

The values are drawn from patent US20130289246A1.
